Measurements taken from patent US20260184782A1 (TWIST BIOSCIENCE, published 2026).

T1: human TIGIT-Fc (human, UniProt Q495A1 22-141, limits assumed)
T1 construct: not shown: Fc; not described
T1 sequence (looked up): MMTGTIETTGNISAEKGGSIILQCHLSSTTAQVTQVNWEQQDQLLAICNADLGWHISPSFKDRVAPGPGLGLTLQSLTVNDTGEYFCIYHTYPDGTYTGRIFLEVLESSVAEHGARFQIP

T2: TIGIT (UniProt Q495A1 22-141, limits assumed)
T2 construct: also called T cell immunoreceptor with Ig and ITIM domains; hTIGIT
T2 sequence (looked up): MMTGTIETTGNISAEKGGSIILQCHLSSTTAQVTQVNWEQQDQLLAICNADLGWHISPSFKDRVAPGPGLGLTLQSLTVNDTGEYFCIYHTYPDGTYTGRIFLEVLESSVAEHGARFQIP


Experiments:
[1] = biological target: T1, human TIGIT-Fc; assay: CD155 competition ELISA, single point; note: test concentration or dose not given here
Description: TIGIT/CD155 inhibition of VHH-Fcs were assessed using an ELISA assay (Table 10B). Briefly, human TIGIT-Fc was coated on a plate & then incubated with VHH-Fcs and human CD155-biotin. Bound CD155-biotin was detected using a streptavidin-HRP conjugate visualized with TMB. Strong inhibitors from the single point screen were titrated to determine EC50 (Table 10C).

[2] = biological target: T2, TIGIT; assay: SPR, VHH-V5-His

Row | OD (450 nm) [1] | Binder | also measured
1 | 0.449 OD | TIGIT-SC204 (Fc fusion, VHH-Fc) VHH: EVQLVESGGGLVQPGGSLRLSCAASGFLFNSYWMVWFRQAPGKEREFVAAIWRSGTLKAYADSVKGRFTISADNSKNTAYLQMNSLKPEDTAVYYCAADVNYGSTWRNWGQGTLVTVSS | 
2 | 0.56 OD | TIGIT-SC209 (Fc fusion, VHH-Fc) VHH: EVQLVESGGGLVQPGGSLRLSCAASGFLFNSYWMGWFRQAPGKEREFVAAIWRSGTLKAYADSVKGRFTISADNSKNTEYLQMNSLKPEDTAVYYCARDDYGDYRIYFQHWGQGTLVTVSS | 
3 | 0.504 OD | TIGIT-SC207 (Fc fusion, VHH-Fc) VHH: EVQLVESGGGLVQPGGSLRLSCAASGFAFSSYVMGWFRQAPGKEREFVAAIWRSGTLKAYADSVKGRFTISADNSKNTEYLQMNSLKPEDTAVYYCARDDYGDTRRYFQHWGQGTLVTVSS | 
4 | 0.503 OD | TIGIT-SC199 (Fc fusion, VHH-Fc) VHH: EVQLVESGGGLVQPGGSLRLSCAASGFSSAQYAMGWFRQAPGKERELVASIDSEGRTNYADSVKGRFTISADNSKNTAYLQMNSLKPEDTAVYYCTRDGGFDPWGQGTLVTVSS | 
5 | 0.828 OD | TIGIT-SC214 (Fc fusion, VHH-Fc) VHH: EVQLVESGGGLVQPGGSLRLSCAASGFTFGDSWMGWFRQAPGKEHEFVAAIWRSGTLKAYADSVKGRFTISADNSKNTAYLQMNSLKPEDTAVYYCTSYDAVAGTRDFWGQGTLVTVSS | 
6 | 0.517 OD | TIGIT-SC206 (Fc fusion, VHH-Fc) VHH: EVQLVESGGGLVQPGGSLRLSCAASGFLFDSYVMGWFRQAPGKEREFVAAIWRSGTLKAYADSVKGRFTISADNSKNTAYLQMNGLKPEDTAVYYCAGVGTDYGDYLFNYWGQGTLVTVSS | 
7 | 0.441 OD | TIGIT-SC205 (Fc fusion, VHH-Fc) VHH: EVQLVESGGGLVQPGGSLRLSCAASGFTFDRSWMGWFRQAPGKEREFVAAIWRSGTLKAYADSVKGRFTISADNGKNTAYLQMNSLKPEDTAVYYCAEGGTTAWGWFVPWGQGTLVTVSS | 
8 | 0.587 OD | TIGIT-SC213 (Fc fusion, VHH-Fc) VHH: EVQLVESGGGLVQPGGSLRLSCAASGTFQRINAMGWFRQAPGKEREFVAAIWRSGTLKAYADSVKGRFTISADNSKNTAYLQMNSLKPEDTAVYYCARWVGASGDYWIDYWGQGTLVTVSS | 

More lines, now with the values behind:

Row | Binder | OD (450 nm) [1] | also measured
9 | TIGIT-SC182 (Fc fusion, VHH-Fc) VHH: EVQLVESGGGLVQPGGSLRLSCAASGFTFSSSSMGWFRQAPGKEREFVAAINWSGGSTSYADSVKGRFTISADNSKNTAYLQMNSPKPEDTAVYYCAKDRSYSFDYWGQGTLVTVSS | 0.607 OD | 
10 | TIGIT-SC167 (Fc fusion, VHH-Fc) VHH: EVQLVESGGGLVQPGGSLRLSCAASGRTFSFMGWFRQAPGKEREWVASVLRGGYTWYADSVKGRFTISADNSKNTAYLQMNSLKPEDTAVYYCAREGSGYASDYWGQGTLVTVSS | 0.279 OD | 
11 | TIGIT-SC186 (Fc fusion, VHH-Fc) VHH: EVQLVESGGGLVQPGGSLRLSCAASGNTFSGGFMGWFRQAPGKEREYVASVLRGGYTWYADSVKGRFTISADNSKNTTYLQMNSLKPEDTAVYYCTTDRGYNWNYDWGQGTLVTVSS | 0.576 OD | 
12 | TIGIT-SC180 (Fc fusion, VHH-Fc) VHH: EVQLVESGGGLVQPGGSLRLSCAASGFTLNDYAMGWFRQAPGKERELVAWIARYDGSTLYADSVKGRFTISADNSKNTAYLQMNSLKPEDTAVYYCASEVASGETDYWGQGTLVTVSS | 0.639 OD | 
13 | TIGIT-SC169 (Fc fusion, VHH-Fc) VHH: EVQLVESGGGLVQPGGSLRLSCAASGFTLNDYAMGWFRQAPGKERELVAWIARYDGSTLYADSVKGRFTISADNSKNTAYLQMNSLKPEDTAVYYCTTELRWELQQPDYWGQGTLVTVSS | 0.679 OD | 
14 | TIGIT-SC208 (Fc fusion, VHH-Fc) VHH: EVQLVESGGGLVQPGGSLRLSCAASGFLFDSYVMGWFRQAPGKEREFVAAIWRSGTLKAYADSVKGRFTISADNSKNTEYLQMNSLKPEDTAVYYCARDDYGDTRRYFQHWGQGTLVTVSS | 0.544 OD | 
15 | TIGIT-SC190 (Fc fusion, VHH-Fc) VHH: EVQLVESGGGLVQPGGSLRLSCAASGFTFDRSWMGWFRQAPGKEREWVASVLRGGYTWYADSVKGRFTISADNSKNTAYLQMNSLKPEDTAVYYCVTDVGAPDYWGQGTLVTVSS | 0.533 OD | 
16 | TIGIT-30-54 (VHH-V5-His) (VHH, not shown: V5-His tag) VHH: EVQLVESGGGLVQAGGSLRLSCAASGFTFRSFGMGWFRQAPGKEREFVASTIWSRGDTYYADSVKGRFTISADNAKNTVYLQMNSLKPEDTAVYYCASSPYGPLYRSTHYYDWGQGTQVTVSS |  | Kd [2]: 1090 nM; RU [2]: 130 RU; koff [2]: 0.04 s⁻¹; kon [2]: 30000 M⁻¹ s⁻¹
17 | TIGIT-SC176 (Fc fusion, VHH-Fc) VHH: EVQLVESGGGLVQPGGSLRLSCAASGFTFSPSWMGWFRQAPGKEREWVASVLRGGYTWYADSVKGRFTISADNSKNTAYLQMNSLKPEDTAVYYCVHEDSVAAHFDFWGQGTLVTVSS | 0.57 OD | 
18 | TIGIT-SC177 (Fc fusion, VHH-Fc) VHH: EVQLVESGGGLVQPGGSLRLSCAASGFTFSPSWMGWFRQAPGKEREWVASVLRGGYTWYADSVKGRFTISADNSKNTAYLQMNSLKPEDTAVYYCATDRGPAMVFNLWGQGTLVTVSS | 0.507 OD | 
19 | TIGIT-30-58 (VHH-V5-His) (VHH, not shown: V5-His tag) VHH: EVQLVESGGGLVQAGGSLRLSCAASGFAFGDSWMGWFRQAPGKEREWVSGISSGGGRTYYADSVKGRFTISADNAKNTVYLQMNSLKPEDTAVYYCAADVWYGSTWRNWGQGTQVTVSS |  | Kd [2]: 1060 nM; RU [2]: 120 RU; koff [2]: 0.01 s⁻¹; kon [2]: 10000 M⁻¹ s⁻¹
20 | TIGIT-SC178 (Fc fusion, VHH-Fc) VHH: EVQLVESGGGLVQPGGSLRLSCAASGFTLSPSWMGWFRQAPGKEREWVASVLRGGYTWYADSVKGRFTISADNSKNTAYLQMNSLKPEDTAVYYCASEVASGETDYWGQGTLVTVSS | 0.494 OD | 
21 | TIGIT-SC184 (Fc fusion, VHH-Fc) VHH: EVQLVESGGGLVQPGGSLRLSCAASGFTFSPSWMGWFRQAPGKEREWVASVLRGGYTWYADSVKGRFTISADNSKNTAYLQMNSLKPEDTAVYYCTTDRGYNWNYDWGQGTLVTVSS | 0.534 OD | 
22 | TIGIT-SC181 (Fc fusion, VHH-Fc) VHH: EVQLVESGGGLVQPGGSLRLSCAASGFTLSSNWMGWFRQAPGKEREFVASVLRGGYTWYADSVKGRFTISADNSKNTAYLQMNSLKPEDTAVYYCARDAYYYGLWGQGTLVTVSS | 0.554 OD | 
23 | TIGIT-SC192 (Fc fusion, VHH-Fc) VHH: EVQLVESGGGLVQPGGSLRLSCAASGFTFSVYWMGWFRQAPGKEREFVAAISRSGTLKEYADSVKGRFTISADNSKNTAYLQMNSLKPEDTAVYYCARGSGWPKIHFDYWGQGTLVTVSS | 0.487 OD | 
24 | TIGIT-SC174 (Fc fusion, VHH-Fc) VHH: EVQLVESGGGLVQPGGSLRLSCAASGFLFDSYAMGWFRQAPGKEREFVAAISWSGGSTYYADSVKGRFTISADNSKNTAYLQMNSLKPEDTAVYYCTTDALRFLEWPWWGQGTLVTVSS | 0.532 OD | 
